Experimental data taken from PMC5740060.

Experiments:
[1] = target: PfTrx-L2(8x)-OVX313 (Pyrococcus furiosus); assay: SEC; Superdex 200 HR10/30, 25 mM Tris-HCl (pH 7.5), 150 mM NaCl, 0.7 ml/min; heparin-purified antigen; calibrated with molecular mass standards
[2] = target: PfTrx-L2(8x)-OVX313 (Pyrococcus furiosus); assay: non-reducing SDS-PAGE; heparin-purified antigen electrophoresed without β-mercaptoethanol (disulfide-linked oligomer kept); reduced sample beside it runs as the monomer
[3] = target: PfTrx-L2-OVX313 (Pyrococcus furiosus | human papillomavirus type 16) (UniProt P03107); assay: SEC; Superdex 200 HR10/30, 25 mM Tris-HCl (pH 7.5), 150 mM NaCl, 0.7 ml/min; heparin-purified antigen; calibrated with molecular mass standards
[4] = target: PfTrx-L2-OVX313 (Pyrococcus furiosus | human papillomavirus type 16) (UniProt P03107); assay: non-reducing SDS-PAGE; heparin-purified antigen electrophoresed without β-mercaptoethanol (disulfide-linked oligomer kept); reduced sample beside it runs as the monomer
[5] = target: L2-OVX313 (human papillomavirus type 16) (UniProt P03107); assay: SEC; Superdex 200 HR10/30, 25 mM Tris-HCl (pH 7.5), 150 mM NaCl, 0.7 ml/min; heparin-purified antigen; calibrated with molecular mass standards
[6] = target: L2-OVX313 (human papillomavirus type 16) (UniProt P03107); assay: non-reducing SDS-PAGE; heparin-purified antigen electrophoresed without β-mercaptoethanol (disulfide-linked oligomer kept); reduced sample beside it runs as the monomer

Substance: PfTrx-L2(8x)-OVX313
- stoichiometry N [1]: 7
- stoichiometry N [2]: 7

Substance: PfTrx-L2-OVX313 (from UniProt P03107 20-38; P03107 20-38; P03107 20-38)
- stoichiometry N [3]: 7
- stoichiometry N [4]: 7

Substance: L2-OVX313 (from UniProt P03107 20-38; P03107 20-38; P03107 20-38)
- stoichiometry N [5]: 7
- stoichiometry N [6]: 7
